For assay [1], the target named is T1, human CD80-murine Ig fusion protein (human).
T1 construct: Bought (Ancell #510-820); also called hCD80-mIg; human CD80-murine IgG
T1 chain: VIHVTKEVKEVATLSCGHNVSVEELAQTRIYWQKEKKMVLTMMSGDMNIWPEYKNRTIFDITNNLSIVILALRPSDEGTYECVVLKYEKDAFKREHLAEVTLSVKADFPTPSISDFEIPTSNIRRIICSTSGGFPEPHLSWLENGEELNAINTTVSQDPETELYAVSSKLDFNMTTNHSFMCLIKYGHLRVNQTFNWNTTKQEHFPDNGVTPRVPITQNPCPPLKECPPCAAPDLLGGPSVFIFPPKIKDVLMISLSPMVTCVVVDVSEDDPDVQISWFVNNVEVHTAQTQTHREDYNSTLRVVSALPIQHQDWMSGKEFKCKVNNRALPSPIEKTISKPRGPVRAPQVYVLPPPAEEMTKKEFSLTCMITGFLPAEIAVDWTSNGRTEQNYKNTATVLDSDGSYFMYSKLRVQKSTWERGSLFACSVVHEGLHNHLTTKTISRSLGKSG
Kind of assay: SPR Biacore, hCD80-mIg captured. As to the method: (§1) All Biacore™ analyses were performed on a Biacore™ 2000 system (GE Healthcare) at room temperature (RT, 25° C.). HBS-EP buffer (10 mM HEPES (pH 7.4), 150 mM NaCl, 3 mM EDTA, 0.005% surfactant P20) was used as the flow buffer for all experiments.
(§2) Rabbit anti-mouse IgG antibody (GE Healthcare, #BR-1005-14) was immobilized on CM5 sensor chips (GE Healthcare, #BR-1000-14) according to the manufacturer's protocol. Antibody was diluted to 30 μg/ml in immobilization buffer (10 mM sodium acetate, pH 5.0 (BR-1003-51)). At a flow rate of 5 μl/minute, sensor chip CM5 was activated with a 35 μl injection of a mixture of 1-Ethyl-3-[3-dimethylaminopropyl]carbodiimide hydrochloride (EDC) and N-hydroxysuccinimide (NHS) (made by mixing equal volumes of 11.5 mg/ml EDC and 75 mg/ml NHS) (GE Healthcare, #BR-1000-50), followed by a 35 μl injection of undiluted antibody. Un-reacted sites were quenched with 35 μl of 1M ethanolamine-HCL, pH 8.5 (GE Healthcare, #BR-1000-50). […] CTLA-4 ligands human CD80-murine Ig (hCD80-mIg) (Ancell, #510-820) or human CD86-murine Ig (hCD86-mIg) (Ancell, #509-820) were bound to antibody-coated sensor chips by injection of 10 μl or 16 μl, respectively, ligand solution (2 μg/ml protein in HBS-EP buffer [10 mM HEPES pH 7.4, 150 mM NaCl, 3 mM EDTA, 0.005% (v/v) surfactant P-20, GE Healthcare, #BR-1001-88]) at a flow rate of 10 μl/min.

Assay [2] concerns the target T2, human CD86-murine Ig fusion protein (human).
T2 construct: Bought (Ancell #509-820); also called hCD86-mIg
T2 chain: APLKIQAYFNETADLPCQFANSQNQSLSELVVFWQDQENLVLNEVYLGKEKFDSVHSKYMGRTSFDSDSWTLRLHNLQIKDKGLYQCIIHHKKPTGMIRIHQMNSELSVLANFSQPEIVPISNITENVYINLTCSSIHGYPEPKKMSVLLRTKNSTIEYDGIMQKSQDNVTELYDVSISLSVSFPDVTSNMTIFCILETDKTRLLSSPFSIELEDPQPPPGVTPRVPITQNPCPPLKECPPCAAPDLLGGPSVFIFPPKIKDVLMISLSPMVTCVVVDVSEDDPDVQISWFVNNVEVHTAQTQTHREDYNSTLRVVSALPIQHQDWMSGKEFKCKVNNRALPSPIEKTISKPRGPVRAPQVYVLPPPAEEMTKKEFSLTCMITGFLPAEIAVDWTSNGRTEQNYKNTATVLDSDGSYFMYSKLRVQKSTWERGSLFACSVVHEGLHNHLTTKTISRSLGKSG
The experiment in a line: SPR Biacore, hCD86-mIg captured. As to the method: as §1, §2

The values that follow come from patent US20110177071A1 (PERSEID THERAPEUTICS, published 2011).

Numbering of substitutions follows the chain as printed. Names and notes keep the numbering of the source.

B1: D1T-IgG2 (Fc fusion)
chain: MHVAQPAVVLASSRGIASFVCEYESPHKANEIRVTVLRQANSQVTEVCAMTYMKGDELTFLDDPFCTGTFSGNQVNLTIQGLRAADTGLYICKVELMYPPPYYLGIGNGTQIYVIDPEPCPDSDERKCCVECPPCPAPPVAGPSVFLFPPKPKDTLMISRTPEVTCVVVDVSHEDPEVQFNWYVDGVEVHNAKTKPREEQFNSTFRVVSVLTVVHQDWLNGKEYKCKVSNKGLPAPIEKTISKTKGQPREPQVYTLPPSREEMTKNQVSLTCLVKGFYPSDIAVEWESNGQPENNYKTTPPMLDSDGSFFLYSKLTVDKSRWQQGNVFSCSVMHEALHNHYTQKSLSLSPG
On to B1, for which, in assay [1], the “Binding Avidity (Relative to Orencia)” value is above 2 fold and the Kd is below 439 pM. In addition, the equilibrium dissociation constant (Kd) in assay [2] lay within 262 to 523 pM.

B2: D26-IgG2 (Fc fusion)
chain: B1 chain with S25A, I32V, Q39E, N41G, K54V, G55E, F65S, I106L
For the molecule B2, the equilibrium dissociation constant (Kd) in assay [1] is 439 to 1750 pM; in assay [2], below 131 pM. Also, the “Binding Avidity (Relative to Orencia)” value in assay [2] is above 40 fold.

B3: D3-21-IgG2 (Fc fusion)
chain: B1 chain with H27G, N41D, D56N, F65S, A85M, I106F
As to B3, the figures for the dissociation constant (Kd) in assay [1] and in assay [2] were 439 to 1750 pM and 131 to 262 pM, respectively.

B4: D24-IgG2 (Fc fusion)
chain: B1 chain with H27G, Q39K, N41G, G55E, F65S, I106L
As to B4, in assay [1], the dissociation constant Kd was 439 to 1750 pM. Besides, in assay [2], the “Binding Avidity (Relative to Orencia)” value was above 40 fold and the equilibrium dissociation constant (Kd) is below 131 pM.

B5: D3-8-IgG2 (Fc fusion)
chain: B1 chain with H27G, N41G, P64S, F65S, I106F
Turning to B5, the Kd in assay [1] was 439 to 1750 pM; in assay [2] it was 131 to 262 pM.

B6: D3-66-IgG2 (Fc fusion)
chain: B1 chain with E24A, H27G, I32V, N41D, F65I, A85M, L104E
As to B6, the “Binding Avidity (Relative to Orencia)” value in assay [1] is above 2 fold; in assay [2], above 40 fold. Moreover, the equilibrium dissociation constant (Kd) in assay [1] was below 439 pM; in assay [2], below 131 pM.

B7: D3-32-IgG2 (Fc fusion)
chain: B1 chain with H27G, Q39K, N41D, F65S
Molecule B7 had a Kd in assay [1] of 439 to 1750 pM. In assay [2], the “Binding Avidity (Relative to Orencia)” value was above 40 fold and the Kd was below 131 pM.

B8: D3-24-IgG2 (Fc fusion)
chain: B1 chain with H27G, N41G, D56N, F65S, A85M, I106F
Turning to B8, the figures for the Kd in assay [1] and in assay [2] were 439 to 1750 pM and 131 to 262 pM, respectively.

B9: D3-1-IgG2 (Fc fusion)
chain: B1 chain with E24A, H27G, N41G, F65S, I106F
In assay [1], B9 came in with a dissociation constant Kd of 439 to 1750 pM. Besides, in assay [2], the “Binding Avidity (Relative to Orencia)” value was above 40 fold and the Kd is below 131 pM.

B10: D3-7-IgG2 (Fc fusion)
chain: B1 chain with H27G, N41G, D56N, F65S, I106F
notes: also called D3-07
For B10, the Kd in assay [1] was in the range of 439 to 1750 pM. In assay [2], the “Binding Avidity (Relative to Orencia)” value is above 40 fold and the dissociation constant (Kd) was below 131 pM.

B11: D3-5-IgG2 (Fc fusion)
chain: B1 chain with H27G, N41G, M50A, F65S, I106F
As to B11, the results for the Kd in assay [1] and in assay [2] were 439 to 1750 pM and 131 to 262 pM, respectively.

B12: D3-23-IgG2 (Fc fusion)
chain: B1 chain with H27G, N41D, D56N, F65S, I106F
Turning to B12, the figures for the Kd in assay [1] and in assay [2] were 439 to 1750 pM and 131 to 262 pM, respectively.

B13: D3-9-IgG2 (Fc fusion)
chain: B1 chain with H27G, N41G, F65I, I106F
On to B13, for which the dissociation constant (Kd) in assay [1] is 439 to 1750 pM; in assay [2], below 131 pM. In addition, in assay [2], the “Binding Avidity (Relative to Orencia)” value was above 40 fold.

B14: D6-IgG2 (Fc fusion)
chain: B1 chain with E24A, H27G, N30T, N41D, K54M, F65I, A85M
For B14, the Kd was in the range of 439 to 1750 pM in assay [1] and 523 to 2650 pM in assay [2].

B15: D23-IgG2 (Fc fusion)
chain: B1 chain with E24S, S25A, K28N, N30A, Q39K, N41G, G55E, F65S, I106L
Take B15: the “Binding Avidity (Relative to Orencia)” value in assay [1] is above 2 fold; in assay [2], above 40 fold. Besides, the Kd in assay [1] is below 439 pM; in assay [2], below 131 pM.

B16: D5-IgG2 (Fc fusion)
chain: B1 chain with E24A, H27G, N30T, I32V, N41D, M50A, K54M, F65I, A85M
As for B16, the Kd in assay [1] was in the range of 439 to 1750 pM; in assay [2], 523 to 2650 pM.

B17: D3-76-IgG2 (Fc fusion)
chain: B1 chain with E24A, H27G, I32V, N41D, G55E, F65I, A85M
For B17, the Kd in assay [1] is 439 to 1750 pM. In addition, in assay [2], the “Binding Avidity (Relative to Orencia)” value was above 40 fold and the Kd is below 131 pM.

B18: D4-IgG2 (Fc fusion)
chain: B1 chain with E24S, H27G, N30D, N41S, K54E, F65T, A85V, I106F
notes: also called clone D4
For B18, the values for the Kd in assay [1] and in assay [2] were 439 to 1750 pM and 523 to 2650 pM, respectively.

B19: D3-22-IgG2 (Fc fusion)
chain: B1 chain with H27G, N41G, D56N, F65S, A85M
On to B19, for which the figures for the equilibrium dissociation constant (Kd) in assay [1] and in assay [2] were 439 to 1750 pM and 131 to 262 pM, respectively.

B20: D21-IgG2 (Fc fusion)
chain: MHVAQPAVVLASSRGIASFVCEYSAPHNADEIRVTVLRKASSQVTEVCAMTYMEEDELTFLDDPTCTGTFSGNQVNLTIQGLRAVDTGLYICKVELMYPPPYYLGFGNGTQIYVIDPEPCPDSDERKCCVECPPCPAPPVAGPSVFLFPPKPKDTLMISRTPEVTCVVVDVSHEDPEVQFNWYVDGVEVHNAKTKPREEQFNSTFRVVSVLTVVHQDWLNGKEYKCKVSNKGLPAPIEKTISKTKGQPREPQVYTLPPSREEMTKNQVSLTCLVKGFYPSDIAVEWESNGQPENNYKTTPPMLDSDGSFFLYSKLTVDKSRWQQGNVFSCSVMHEALHNHYTQKSLSLSPG
Turning to B20, the dissociation constant (Kd) in assay [1] was 439 to 1750 pM; in assay [2], 131 to 262 pM.

B21: D3-30-IgG2 (Fc fusion)
chain: B1 chain with H27G, N41D, F65I, A85M
Take B21: the Kd in assay [1] was in the range of 439 to 1750 pM; in assay [2], 131 to 262 pM.

B22: D3-19-IgG2 (Fc fusion)
chain: B1 chain with H27G, N41D, D56N, F65S
As for B22, the Kd in assay [1] is 439 to 1750 pM; in assay [2], 131 to 262 pM.

B23: D3-16-IgG2 (Fc fusion)
chain: B1 chain with H27G, N41G, F65S, A85M
On to B23, for which the dissociation constant (Kd) in assay [1] was 439 to 1750 pM; in assay [2], below 131 pM. In addition, the “Binding Avidity (Relative to Orencia)” value in assay [2] is above 40 fold.

B24: D3-26-IgG2 (Fc fusion)
chain: B1 chain with E24A, H27G, N41D, D56N, F65S, A85M
Regarding B24, the Kd was 439 to 1750 pM in assay [1] and 131 to 262 pM in assay [2].

B25: D3-28-IgG2 (Fc fusion)
chain: B1 chain with H27G, N41D, D56N, F65I, A85M
For B25, the values for the Kd in assay [1] and in assay [2] were 439 to 1750 pM and 262 to 523 pM, respectively.

B26: D3-25-IgG2 (Fc fusion)
chain: B1 chain with H27G, N41G, D56N, F65S
As for B26, the figures for the Kd in assay [1] and in assay [2] were 439 to 1750 pM and 131 to 262 pM, respectively.

B27: D3-33-IgG2 (Fc fusion)
chain: B1 chain with H27G, Q39K, N41D, G55E, F65S
The molecule B27 registered an equilibrium dissociation constant (Kd) in assay [1] of 439 to 1750 pM. In assay [2], the “Binding Avidity (Relative to Orencia)” value is above 40 fold and the Kd is below 131 pM.

B28: D3-74-IgG2 (Fc fusion)
chain: B1 chain with E24A, H27G, N41D, D56N, F65I, A85M, L104E
For the molecule B28, in assay [1], the “Binding Avidity (Relative to Orencia)” value is above 2 fold and the Kd was below 439 pM. Moreover, in assay [2], the “Binding Avidity (Relative to Orencia)” value is above 40 fold and the Kd is below 131 pM.

B29: D20-IgG2 (Fc fusion)
chain: B1 chain with N30T, N41D, K54M, G55E, F65I, A85M
Take B29: the dissociation constant Kd in assay [1] lay in the range of 439 to 1750 pM; in assay [2], 131 to 262 pM.
